From US20040265963 come the findings set out here.

The series deals with T1, Tkip (tyrosine kinase inhibitor peptide), WLVFFVIFYFFR
T1 chain: WLVFFVIFYFFR

B1: Recombinant human JAK2 immobilized on agarose beads (protein)
chain: MGMACLTMTEMEGTSTSSIYQNGDISGNANSMKQIDPVLQVYLYHSLGKSEADYLTFPSGEYVAEEICIAASKACGITPVYHNMFALMSETERIWYPPNHVFHIDESTRHNVLYRIRFYFPRWYCSGSNRAYRHGISRGAEAPLLDDFVMSYLFAQWRHDFVHGWIKVPVTHETQEECLGMAVLDMMRIAKENDQTPLAIYNSISYKTFLPKCIRAKIQDYHILTRKRIRYRFRRFIQQFSQCKATARNLKLKYLINLETLQSAFYTEKFEVKEPGSGPSGEEIFATIIITGNGGIQWSRGKHKESETLTEQDLQLYCDFPNIIDVSIKQANQEGSNESRVVTIHKQDGKNLEIELSSLREALSFVSLIDGYYRLTADAHHYLCKEVAPPAVLENIQSNCHGPISMDFAISKLKKAGNQTGLYVLRCSPKDFNKYFLTFAVERENVIEYKHCLITKNENEEYNLSGTKKNFSSLKDLLNCYQMETVRSDNIIFQFTKCCPPKPKDKSNLLVFRTNGVSDVPTSPTLQRPTHMNQMVFHKIRNEDLIFNESLGQGTFTKIFKGVRREVGDYGQLHETEVLLKVLDKAHRNYSESFFEAASMMSKLSHKHLVLNYGVCVCGDENILVQEFVKFGSLDTYLKKNKNCINILWKLEVAKQLAWAMHFLEENTLIHGNVCAKNILLIREEDRKTGNPPFIKLSDPGISITVLPKDILQERIPWVPPECIENPKNLNLATDKWSFGTTLWEICSGGDKPLSALDSQRKLQFYEDRHQLPAPKWAELANLINNCMDYEPDFRPSFRAIIRDLNSLFTPDYELLTENDMLPNMRIGALGFSGAFEDRDPTQFEERHLKFLQQLGKGNFGSVEMCRYDPLQDNTGEVVAVKKLQHSTEEHLRDFEREIEILKSLQHDNIVKYKGVCYSAGRRNLKLIMEYLPYGSLRDYLQKHKERIDHIKLLQYTSQICKGMEYLGTKRYIHRDLATRNILVENENRVKIGDFGLTKVLPQDKEYYKVKEPGESPIFWYAPESLTESKFSVASDVWSFGVVLYELFTYIEKSKSPPAEFMRMIGNDKQGQMIVFHLIELLKNNGRLPRPDGCPDEIYMIMTECWNNNVNQRPSFRDLALRVDQIRDNMAG
Consider B1, for which the “JAK2 autophosphorylation and JAK2 phosphorylation of IFNGR-1, in vitro kinase assay (32P autoradiography)” value is on record as “Tkip at 50 µM inhibited both the autophosphorylation of JAK2 as well as JAK2 phosphorylation of IFNGR-1”.
